Substitutions are numbered along the chain they refer to. Names and notes keep the numbering of the source.
Legend:
[1] = target: murine CD47 on murine CD47 positive tumor cells (mouse) (UniProt Q61735); experiment: saturation binding by flow cytometry on HT-2 (mouse T cells); range printed beside the two rising curves (mIAP and Cleaved Vel), upper end
[2] = target: murine CD47 on murine CD47 positive tumor cells (mouse) (UniProt Q61735); experiment: saturation binding by flow cytometry on HT-2 (mouse T cells)
[3] = target: murine CD47 on murine CD47 positive tumor cells (mouse) (UniProt Q61735); experiment: saturation binding by flow cytometry on HT-2 (mouse T cells); range printed beside the two rising curves (mIAP and Cleaved Vel), lower end
[4] = target: T1, human CD47 expressed on the cell surface (human, UniProt Q08722 19-323); experiment: saturating cellular FACS on L450cy lymphoma cells
T1 construct: whole, on cells; also called CD47 on SW780, human red blood cells, HT1080, HCT116, Raji, L450cy and patient blood cells

[5] = target: T2, Soluble recombinant human CD47-Fc (R&D Systems) (human, UniProt Q08722 19-139); experiment: saturating ELISA on plates coated with human CD47; column head 'Average EC50 (nM)'
T2 construct: Bought reagent; also called rhCD47; human CD47 (plate-coated); not shown: Fc part of the bought fusion protein

[6] = target: T2, Soluble recombinant human CD47-Fc (R&D …); experiment: hCD47 ELISA, absorbance at 450 nm against antibody concentration
[7] = target: T2, Soluble recombinant human CD47-Fc (R&D …); experiment: saturation binding ELISA on rhCD47
[8] = target: T1, human CD47 expressed on the cell surface; experiment: saturation binding, flow cytometry, Raji cells
[9] = target: T1, human CD47 expressed on the cell surface; experiment: saturation binding, flow cytometry, SW780 cells
[10] = target: T1, human CD47 expressed on the cell surface; experiment: saturation binding, flow cytometry, SW780 cells; remark: listed apart in the source
[11] = target: T1, human CD47 expressed on the cell surface; experiment: saturation binding, flow cytometry, HT1080 cells
[12] = target: T1, human CD47 expressed on the cell surface; experiment: saturation binding, flow cytometry, human red blood cells
[13] = target: T1, human CD47 expressed on the cell surface; experiment: saturation binding, flow cytometry, SW780 cells; remark: listed apart in the source
[14] = target: T1, human CD47 expressed on the cell surface; experiment: saturation binding, flow cytometry, HCT116 cells
[15] = target: T1, human CD47 expressed on the cell surface; experiment: saturation binding, flow cytometry, human red blood cells; remark: listed apart in the source
[16] = target: T1, human CD47 expressed on the cell surface; experiment: saturation binding, flow cytometry, SW780 cells; SW780 human bladder cancer cells
[17] = target: T1, human CD47 expressed on the cell surface; experiment: saturation binding, flow cytometry, SW780 cells; remark: listed apart in the source
[18] = target: T1, human CD47 expressed on the cell surface; experiment: saturation binding, flow cytometry, HCT116 cells; HCT116 cells

Chain of murine CD47 on murine CD47 positive tumor cells (mouse) (Q61735 19-303): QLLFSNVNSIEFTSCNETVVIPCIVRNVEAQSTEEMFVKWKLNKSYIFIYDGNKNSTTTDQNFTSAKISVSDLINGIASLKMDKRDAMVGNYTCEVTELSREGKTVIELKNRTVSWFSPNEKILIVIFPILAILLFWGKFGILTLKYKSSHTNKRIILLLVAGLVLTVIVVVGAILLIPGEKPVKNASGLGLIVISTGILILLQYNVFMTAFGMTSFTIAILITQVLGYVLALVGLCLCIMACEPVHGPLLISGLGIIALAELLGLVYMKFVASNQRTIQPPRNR

Molecule: mIAP301 (antibody)
- Kd [1]: < 15 nM
- EC50 (read off the curve) [2]: 10 to 20 nM
- Kd [3]: > 7.5 nM

B1: mB6H12 (antibody, V domains shown)
VH: EVQLVESGGDLVKPGGSLKLSCAASGFTFSGYGMSWVRQTPDKRLEWVATITSGGTYTYYPDSVKGRFTISRDNAKNTLYLQIDSLKSEDTAIYFCARSLAGNAMDYWGQGTSVTVSS
VL: DIVMTQSPATLSVTPGDRVSLSCRASQTISDYLHWYQQKSHESPRLLIKFASQSISGIPSRFSGSGSGSDFTLSINSVEPEDVGVYYCQNGHGFPRTFGGGTKLEIKR
notes: Murine parental antibody; also called murine B6H12; mouse B6H12
- Kd [4]: 1.2 nM
- EC50 [5]: 37 nM

B2: hB6H12.4 (antibody, V domains shown)
VH: EVQLLESGGGLVQPGGSLRLSCAASGFTFSGYGMSWVRQAPGKRLEWVATITSGGTYTYYPDSVKGRFTISRDNSKNTLYLQMNSLRAEDTAIYFCARSLAGNAMDYWGQGTLVTVSS
VL: DIQMTQSPSSLSASVGDRVTLTCRASQTISNYLAWYQQKPGKVPKLLIKFASTLQSGVPSRFSGSGSGSDFTLTISSLQPEDVATYYCQNGHGFPRTFGQGTKLEIKR
notes: also called hvH1/hvK4; antibody 4 (bin A)
- Kd [4]: 0.9 nM
- EC50 [5]: 24 nM
- EC50 (read off the curve) [6]: ~1 nM

B3: hB6H12.20 (antibody, V domains shown)
VH: B2 VH with L5V, R44G, P61A, M83I, I93V, F95Y
VL: B2 VL
notes: also called hvH5/hvK4; antibody 20 (bin B)
- Kd [4]: 1.8 nM
- EC50 [5]: 56 nM
- EC50 (read off the curve) [6]: ~4 nM

B4: Ab47 (antibody, V domains shown)
VH: B2 VH with L5V, R44G, S75A, T78S, I93V, F95Y
VL: EIVLTQSPATLSLSPGERATLSCRASQTISDYLHWYQQKPGQAPRLLIKFASQSISGIPARFSGSGSGTDFTLTISSLEPEDFAVYYCQNGHGFPRTFGQGTKVEIKR
notes: Humanized IgG1; also called alternatively humanized antibody Ab47; humanized IgG1 hB6H12 Ab47
- Kd [7]: 1 nM
- Kd [8]: 3.3 nM
- Kd [4]: 0.5 nM
- Kd [9]: 9.6 nM
- Kd [10]: 6.8 nM
- Kd [11]: 21 nM
- EC50 [5]: 16 nM
- Kd [12]: 26.5 nM
- Kd [13]: 8 nM
- Kd [14]: 7.8 nM
- EC50 (read off the curve) [6]: ~1 nM
- Kd [15]: 12.1 nM

B5: Ab47 G91A (antibody, name in Kabat numbering, V domains shown)
VH: B2 VH with L5V, R44G, S75A, T78S, I93V, F95Y
VL: B4 VL with G91A
notes: built from the Ab47 light chain variable region with G91A; IgG1; also called Ab47 variant bearing a G91A mutation in LCDR3
- Kd [10]: 19.8 nM
- Kd [15]: 100 nM

B6: hB6H12.2 (antibody, V domains shown)
VH: B2 VH
VL: EIVMTQSPDFQSVTPKEKVTLTCRASQTISDYLHWYQQKPDQSPKLLIKFASQSISGVPSRFSGSGSGTDFTLTINSLEAEDAATYYCQNGHGFPRTFGQGTKLEIKR
notes: also called hvH1/hvK2; antibody 2 (bin A)
- Kd [4]: 0.9 nM
- EC50 [5]: 30 nM

B7: hB6H12.1 (antibody, V domains shown)
VH: B2 VH
VL: B6 VL with T85V
notes: also called hvH1/hvK1; antibody 1 (bin A)
- Kd [4]: 0.9 nM
- EC50 [5]: 30 nM

B8: hB6H12.17 (antibody, V domains shown)
VH: B2 VH with L5V, R44G, P61A, M83I, I93V, F95Y
VL: B6 VL with T85V
notes: also called hvH5/hvK1; antibody 17 (bin B)
- Kd [4]: 1 nM
- EC50 [5]: 43 nM

B9: hB6H12.19 (antibody, V domains shown)
VH: B2 VH with L5V, R44G, P61A, M83I, I93V, F95Y
VL: B6 VL with T69S
notes: also called hvH5/hvK3; antibody 19 (bin B)
- Kd [4]: 1.3 nM
- EC50 [5]: 55 nM
- EC50 (read off the curve) [6]: ~3 nM

B10: hB6H12.3 G91A (antibody, V domains shown)
VH: B2 VH
VL: B6 VL with T69S, G91A
notes: IgG1; also called hB6H12.3 (deamidation mutant); hvH1/hvK3 G91A
- Kd [7]: 2.7 nM
- Kd [16]: 62.3 nM

B11: hB6H12.18 (antibody, V domains shown)
VH: B2 VH with L5V, R44G, P61A, M83I, I93V, F95Y
VL: B6 VL
notes: also called hvH5/hvK2; antibody 18 (bin B)
- Kd [4]: 1.1 nM
- EC50 [5]: 38 nM

B12: Ab47 bearing the A4B4 coiled coil masking domain (antibody)
VH: GKIAALKQKIAALKYKNAALKKKIAALKQGGGGGPLGVRGGGGSEVQLVESGGGLVQPGGSLRLSCAASGFTFSGYGMSWVRQAPGKGLEWVATITSGGTYTYYPDSVKGRFTISRDNAKNSLYLQMNSLRAEDTAVYYCARSLAGNAMDYWGQGTLVTVSS
VL: GEIAALEQEIAALEKENAALEWEIAALEQGGGGGPLGVRGGGGSEIVLTQSPATLSLSPGERATLSCRASQTISDYLHWYQQKPGQAPRLLIKFASQSISGIPARFSGSGSGTDFTLTISSLEPEDFAVYYCQNGHGFPRTFGQGTKVEIKR
notes: IgG1
- Kd [8]: 466 nM
- Kd [9]: 1680 nM
- Kd [11]: 1180 nM
- Kd [14]: 1120 nM

B13: Cleaved Vel-IPV-hB6H12.4 (antibody, V domains shown)
VH: B2 VH
VL: B2 VL
notes: MMP2-cleaved; IgG1
- Kd [17]: 9.2 nM

B14: Cleaved Vel-IPV-hB6H12.20 (antibody, V domains shown)
VH: B2 VH with L5V, R44G, P61A, M83I, I93V, F95Y
VL: B2 VL
notes: MMP2-cleaved; IgG1
- Kd [17]: 30.2 nM

B15: Cleaved Vel-IPV-hB6H12.19 (antibody, V domains shown)
VH: B2 VH with L5V, R44G, P61A, M83I, I93V, F95Y
VL: B6 VL with T69S
notes: MMP2-cleaved; IgG1
- Kd [17]: 26.6 nM

B16: Ab47 bearing the A2B1 coiled coil masking domain (antibody)
VH: GASTSVDELQAEVDQLQDENYALKTKVAQLRKKVEKLSEGGGGGPLGVRGGGGSEVQLVESGGGLVQPGGSLRLSCAASGFTFSGYGMSWVRQAPGKGLEWVATITSGGTYTYYPDSVKGRFTISRDNAKNSLYLQMNSLRAEDTAVYYCARSLAGNAMDYWGQGTLVTVSS
VL: GASTTVAQLRERVKTLRAQNYELESEVQRLREQVAQLASGGGGGPLGVRGGGGSEIVLTQSPATLSLSPGERATLSCRASQTISDYLHWYQQKPGQAPRLLIKFASQSISGIPARFSGSGSGTDFTLTISSLEPEDFAVYYCQNGHGFPRTFGQGTKVEIKR
notes: IgG1
- Kd [18]: 1780 nM
